Test system: Escherichia coli TOP10
Assay: shrunken log2 fold change of peptide-encoding DNA abundance (4.5 h post-induction vs induction); higher = less antimicrobial activity (less host growth inhibition)
Conditions: time post-induction: 4.5 h; library: site-saturation at positions 5, 18, 19, 20
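Further: peptides expressed intracellularly from a pBAD plasmid library in pooled LB shake-flask culture, induced with 0.3% L-arabinose, DNA abundance read by NGS, three biological replicates, DESeq2 with apeglm shrinkage.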

| Sequence | shrunken log2 fold change |
| --- | --- |
| RRIRQRPPRLPRPRPRPRAEPRP | 0.292 |
| RRIRDRPPRLPRPRPRPFFIPRP | -0.191 |
| RRIRQRPPRLPRPRPRPMCIPRP | 0.0119 |
| RRIRLRPPRLPRPRPRPEQYPRP | -0.122 |
| RRIRDRPPRLPRPRPRPVMCPRP | 0.156 |
| RRIRRRPPRLPRPRPRPHWNPRP | -0.159 |
| RRIRLRPPRLPRPRPRPGPCPRP | 0.121 |
| RRIRDRPPRLPRPRPRPVINPRP | -0.0846 |
| RRIRYRPPRLPRPRPRPYIMPRP | -0.223 |
| RRIRYRPPRLPRPRPRPCFFPRP | -0.619 |
| RRIRWRPPRLPRPRPRPHDFPRP | -0.313 |
| RRIRWRPPRLPRPRPRPFYGPRP | -0.0562 |
| RRIRDRPPRLPRPRPRPTMHPRP | 0.61 |
| RRIRPRPPRLPRPRPRPWGMPRP | -0.128 |
| RRIRMRPPRLPRPRPRPHIAPRP | 0.13 |
| RRIRVRPPRLPRPRPRPGYGPRP | 0.0756 |
| RRIRIRPPRLPRPRPRPHNTPRP | -0.961 |
| RRIRLRPPRLPRPRPRPWYNPRP | 0.111 |
| RRIRRRPPRLPRPRPRPHYAPRP | 0.148 |
| RRIRDRPPRLPRPRPRPASAPRP | 0.616 |
| RRIRRRPPRLPRPRPRPKMCPRP | -0.0385 |
| RRIRRRPPRLPRPRPRPYQAPRP | -0.303 |
| RRIRFRPPRLPRPRPRPHYDPRP | -0.397 |
| RRIRKRPPRLPRPRPRPRDMPRP | 0.0936 |
| RRIRERPPRLPRPRPRPACFPRP | 0.00624 |

| Sequence | shrunken log2 fold change |
| --- | --- |
| RRIRERPPRLPRPRPRPRVRPRP | 0.211 |
| RRIRIRPPRLPRPRPRPSYVPRP | -1.22 |
| RRIRNRPPRLPRPRPRPEMIPRP | -0.0601 |
| RRIRQRPPRLPRPRPRPINPPRP | -0.357 |
| RRIRHRPPRLPRPRPRPSETPRP | -0.0359 |
| RRIRERPPRLPRPRPRPQKAPRP | -0.0836 |
| RRIRCRPPRLPRPRPRPMYWPRP | 0.0082 |
| RRIRWRPPRLPRPRPRPLQPPRP | 0.54 |
| RRIRERPPRLPRPRPRPCNMPRP | -0.101 |
| RRIRARPPRLPRPRPRPKTMPRP | 0.352 |
| RRIRPRPPRLPRPRPRPRIYPRP | 0.0335 |
| RRIRERPPRLPRPRPRPMYNPRP | -0.301 |
| RRIRYRPPRLPRPRPRPQCCPRP | -0.18 |
| RRIRCRPPRLPRPRPRPDEYPRP | -0.231 |
| RRIRSRPPRLPRPRPRPHNEPRP | -0.382 |
| RRIRFRPPRLPRPRPRPPFWPRP | 0.538 |
| RRIRFRPPRLPRPRPRPVHNPRP | -0.104 |
| RRIRQRPPRLPRPRPRPASVPRP | 0.253 |
| RRIRHRPPRLPRPRPRPIYEPRP | -0.234 |
| RRIRQRPPRLPRPRPRPKVHPRP | -0.0859 |
| RRIRMRPPRLPRPRPRPAQRPRP | 0.987 |
| RRIRMRPPRLPRPRPRPKWFPRP | 0.275 |
| RRIRGRPPRLPRPRPRPFAWPRP | 0.573 |
| RRIRSRPPRLPRPRPRPVHAPRP | 0.214 |
| RRIRLRPPRLPRPRPRPIWPPRP | 0.356 |

| Sequence | shrunken log2 fold change |
| --- | --- |
| RRIRRRPPRLPRPRPRPRQTPRP | 0.0881 |
| RRIRCRPPRLPRPRPRPTSPPRP | 0.102 |
| RRIRFRPPRLPRPRPRPQIVPRP | 0.0871 |
| RRIRLRPPRLPRPRPRPLYRPRP | -0.0861 |
| RRIRSRPPRLPRPRPRPDACPRP | 0.322 |
| RRIRMRPPRLPRPRPRPLDNPRP | 0.957 |
| RRIRSRPPRLPRPRPRPMTWPRP | -0.0238 |
| RRIRYRPPRLPRPRPRPPEPPRP | 0.35 |
| RRIRERPPRLPRPRPRPCTGPRP | -0.264 |
| RRIRPRPPRLPRPRPRPKIQPRP | 0.0394 |
| RRIRERPPRLPRPRPRPEHNPRP | -0.203 |
| RRIRYRPPRLPRPRPRPCRFPRP | -0.241 |
| RRIRHRPPRLPRPRPRPMWAPRP | -0.0936 |
| RRIRMRPPRLPRPRPRPEEWPRP | 0.00599 |
| RRIRHRPPRLPRPRPRPNIQPRP | -0.141 |
| RRIRIRPPRLPRPRPRPRGYPRP | -0.794 |
| RRIRPRPPRLPRPRPRPGQVPRP | 0.11 |
| RRIRPRPPRLPRPRPRPRHVPRP | 0.0494 |
| RRIRPRPPRLPRPRPRPKYRPRP | 2.73 |
| RRIRNRPPRLPRPRPRPSCGPRP | -0.178 |
| RRIRPRPPRLPRPRPRPRFAPRP | 0.323 |
| RRIRSRPPRLPRPRPRPWMWPRP | -0.0985 |
| RRIRKRPPRLPRPRPRPNEKPRP | 0.218 |
| RRIRPRPPRLPRPRPRPRGHPRP | 0.0129 |
| RRIRARPPRLPRPRPRPYDVPRP | -0.0868 |

| Sequence | shrunken log2 fold change |
| --- | --- |
| RRIRWRPPRLPRPRPRPVLIPRP | -0.0326 |
| RRIRLRPPRLPRPRPRPQVMPRP | -0.0202 |
| RRIRLRPPRLPRPRPRPLIEPRP | 0.0414 |
| RRIRIRPPRLPRPRPRPMEAPRP | -0.0793 |
| RRIRFRPPRLPRPRPRPPTDPRP | 0.414 |
| RRIRERPPRLPRPRPRPTPLPRP | 0.0281 |
| RRIRTRPPRLPRPRPRPEPQPRP | 0.927 |
| RRIRYRPPRLPRPRPRPNPLPRP | -0.766 |
| RRIRTRPPRLPRPRPRPLQTPRP | -0.00743 |
| RRIRGRPPRLPRPRPRPSMEPRP | 0.467 |
| RRIRTRPPRLPRPRPRPLYPPRP | -0.154 |
| RRIRRRPPRLPRPRPRPCNTPRP | -0.295 |
| RRIRQRPPRLPRPRPRPEFNPRP | -0.0823 |
| RRIRFRPPRLPRPRPRPWASPRP | -0.0247 |
| RRIRCRPPRLPRPRPRPKCLPRP | 0.036 |
| RRIRNRPPRLPRPRPRPHHPPRP | -0.398 |
| RRIRCRPPRLPRPRPRPVKNPRP | -0.344 |
| RRIRLRPPRLPRPRPRPHYNPRP | -0.779 |
| RRIRTRPPRLPRPRPRPDPTPRP | -0.0451 |
| RRIRTRPPRLPRPRPRPAFPPRP | 0.0262 |
| RRIRLRPPRLPRPRPRPGYWPRP | -0.0133 |
| RRIRSRPPRLPRPRPRPMHIPRP | -0.283 |
| RRIRIRPPRLPRPRPRPPKLPRP | 0.0517 |
| RRIRDRPPRLPRPRPRPLPAPRP | 0.574 |
| RRIRHRPPRLPRPRPRPVLAPRP | 0.126 |

| Sequence | shrunken log2 fold change |
| --- | --- |
| RRIRARPPRLPRPRPRPWDAPRP | 0.108 |
| RRIRERPPRLPRPRPRPQYNPRP | -0.927 |
| RRIRVRPPRLPRPRPRPTGNPRP | 2.77 |
| RRIRKRPPRLPRPRPRPDFVPRP | 0.0472 |
| RRIRVRPPRLPRPRPRPGMQPRP | 0.116 |
| RRIRSRPPRLPRPRPRPYDCPRP | -0.0167 |
| RRIRWRPPRLPRPRPRPYRFPRP | -0.0166 |
| RRIRIRPPRLPRPRPRPIMIPRP | -0.0324 |
| RRIRERPPRLPRPRPRPNKRPRP | -0.164 |
| RRIRERPPRLPRPRPRPYLYPRP | -0.927 |
| RRIRRRPPRLPRPRPRPCPQPRP | 0.0779 |
| RRIRVRPPRLPRPRPRPSQLPRP | -0.234 |
| RRIRTRPPRLPRPRPRPFYVPRP | -0.45 |
| RRIRKRPPRLPRPRPRPTFFPRP | 0.368 |
| RRIRERPPRLPRPRPRPLSEPRP | 0.0884 |
| RRIRKRPPRLPRPRPRPVEFPRP | 0.192 |
| RRIRQRPPRLPRPRPRPMVHPRP | -0.0226 |
| RRIRMRPPRLPRPRPRPFQQPRP | -0.00146 |
| RRIRLRPPRLPRPRPRPSRTPRP | -0.204 |
| RRIRVRPPRLPRPRPRPDQKPRP | 0.002 |
| RRIRARPPRLPRPRPRPPISPRP | 0.027 |
| RRIRKRPPRLPRPRPRPEFRPRP | 0.129 |
| RRIRGRPPRLPRPRPRPDAMPRP | 2.4 |
| RRIRWRPPRLPRPRPRPPNRPRP | 0.148 |
| RRIRARPPRLPRPRPRPKKSPRP | 1.2 |

From the supplement of paper PMC9112550, “Optimization of the antimicrobial peptide Bac7 by deep mutational scanning” (BMC Biology, 2022)
